This is an account of results in the supplement of paper PMC7125110.

± gives the standard error. Variants at the floor of the assay were thinned out.

Sequences and labels used below:
B1: glmS ribozyme (parent)
chain: AUAAAAGCGCCAGAACUACAGAAAUGUAGUUGACGAGGAGGAGGUUUAUCGAAUUUUCGGCGGAUGCCUCCAAA

In one data set the parent is B1. Description: self-cleavage kobs at 2500 uM GlcN6P; higher = faster cleavage; RNA array. The conditions noted are these: with glucosamine-6-phosphate. The essentials: (§1)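 E. coli RNA polymerase transcribed barcoded ribozyme variants in situ on sequenced MiSeq chips, which were tracked via a hybridised Cy3 probe at 37 °C. Tiles were imaged over ~14 h after glucosamine-6-phosphate (40 μM to 10 mM) in HEPES/KCl/Mg(OAc)2 buffer was flowed in. Normalised per-tile medians were fit to one- or two-exponential decays for kobs, and kcat and KM came from weighted Michaelis–Menten fits.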
Regarding AUAAAAGUGCCAAAGCUACAGAAAUGUAGUUGACGAGGAGGAGGUUUAUCGAAUUUUCGGCGGAUGCCUCCAAA, the “self-cleavage kobs at 2500 uM GlcN6P” value was under 1e-05 s⁻¹.

In the case of AUAAAAGCGCCAGAACUACAGAAAUGUAGUUGACGAGGAGUAGGUUUAUGGAAUUUCUGGCGGAUGCCUUCAAA, the “self-cleavage kobs at 2500 uM GlcN6P” value is under 1e-05 s⁻¹.

As to AUAAAAGCGCCAGUACUACAGAAAUGUAGUUGACGAGGACGAGGUCUAUCGAGUUUUCGGCGGAUGCCUCGAAA, the “self-cleavage kobs at 2500 uM GlcN6P” value worked out at 0.00101 ± 0.00038 s⁻¹.

As to AUAAAAGGGCCAGAUCUACAGAAAUGUAGUUGACGAGGAGGAGGUUGAUCGAAUUUUCGGCGGAUGCCUCCAAA, the “self-cleavage kobs at 2500 uM GlcN6P” value was under 1e-05 s⁻¹.

Consider AUAAAAGCGCAAGAAUUACAGAAAUGUAGUUGACGAGGAGGAGGUUUAUCGAAUUUUCGGCGGAUGCCUCUAAA, for which the “self-cleavage kobs at 2500 uM GlcN6P” value was determined as 0.000223 ± 5.3e-05 s⁻¹.

In the case of AUAAAAGCGCCAGAACUACAGAAAUGUAGUUGUCAAGGAGGAGGGUUAUGGAAUUUUCGGCGGAUGCCUACAAA, the “self-cleavage kobs at 2500 uM GlcN6P” value was under 1e-05 s⁻¹.

As to AUAAAAGCGCUAGAACUAAAGAAAUGUAGUUGACGAGGAGGAGGUUUAUCGAAUUUUCGGCGGAUGCCUCCAAA, the “self-cleavage kobs at 2500 uM GlcN6P” value is 0.000235 ± 0.0001 s⁻¹.

As to AUAAAUGCGCCAGAACUACAGAAAUGUAGUUGUCGAGGAGGAGGUUUAUCGAAUUUUCGGCGGAUGCGUCCAAA, the “self-cleavage kobs at 2500 uM GlcN6P” value was under 1e-05 s⁻¹.

In the case of AUAAAAGCGCCAGAACUACAGAAAUGUAGUUGGCGAGGAGGAGGUAUAUCGAAUUUUCCGCGGAUGGGUCCAAA, the “self-cleavage kobs at 2500 uM GlcN6P” value turned out to be 4.87e-05 ± 2.1e-05 s⁻¹.

Consider AUAAAAGCGCCAGAACUACAGAAAUGUAGUUGACGAGGAGGAGAUUUGUCGAAUUUUCGGCGGAUGGCUCCAAA, for which the “self-cleavage kobs at 2500 uM GlcN6P” value was 8.88e-05 ± 2.9e-05 s⁻¹.

For AUAAAAGCGCCAGAGCUACAGAAAUGUAGUGGACGAGGAGGAGGUUGAUCGAAUUUUCGGCGGAUGCCUCCAAA, the “self-cleavage kobs at 2500 uM GlcN6P” value worked out at 0.000803 ± 0.00015 s⁻¹.

For the variant AUAAAAGCGCCAGAGCUACAGAAAUGUAGAUGACGAGGAGGAGUAUUAUCGAAUUUUCGGCGGAUGCCUCCAAA, the “self-cleavage kobs at 2500 uM GlcN6P” value came out at 0.000178 ± 5.5e-05 s⁻¹.

For AUAAAAACGCAUGAACUACAGAAAUGUAGUUAACGAGGAGGAGGUUUAUCGAAUUUUCGAGGGAUGCCUCCAAA, the “self-cleavage kobs at 2500 uM GlcN6P” value was under 1e-05 s⁻¹.

On to AUAAAAGCGCGAGAACUACAGAAAUGUAGUUGACGAGGAGGAGGUUUACCGAAUUUUCGGCGGAUGCCUUCAAA, for which the “self-cleavage kobs at 2500 uM GlcN6P” value was under 1e-05 s⁻¹.

With AUAAAAGCGCCGGCACUACAGAAAUGUAGUUGACGAGGAGGAGGUUUAUCGAUUUUUCGGCGGCUGCCUCCAAA, the “self-cleavage kobs at 2500 uM GlcN6P” value was under 1e-05 s⁻¹.

Turning to AUAAAACCGCCAGAACUACAGAAAUGUAGGUGACGAAGAGGAGGUUUAUCGAAUUUUCGGCGGAUGCCUCCAAA, the “self-cleavage kobs at 2500 uM GlcN6P” value was under 1e-05 s⁻¹.

Turning to AUAAAAGCGCCAGAACUACAGAAAUGUAGUUGACGAGGAGGAGCUUUAUCGAUGUUUCGGCGGAUGCCUCCAAA, the “self-cleavage kobs at 2500 uM GlcN6P” value came to 7.38e-05 ± 2e-05 s⁻¹.

For the variant AUAAAAGCGCCACAACUACAGAAAUGUAGCUGACCAGGAUGAGGUUCAUAGAAUUUUCGGCGGAUGCCUCCAAA, the “self-cleavage kobs at 2500 uM GlcN6P” value was under 1e-05 s⁻¹.

AUAAAAGCGCCAGAACUACAGAAAUGUAGUUGACGAAGACGAGGUUGAUCGAAUUGUCGCCGGAUGCCUCGAAA: the “self-cleavage kobs at 2500 uM GlcN6P” value was under 1e-05 s⁻¹.

Consider AUAAAAGCGCCUAAACUACAGAAAUGUAGUUCACGGGGAGGAGGUUUAUCGAAUUUUCGGUGGAUGCCUCCAAA, for which the “self-cleavage kobs at 2500 uM GlcN6P” value is under 1e-05 s⁻¹.

Regarding AUAAAAGCGCCAGAACUACAGAAAUGUAGUAGACGAGGAGGAGGUUUGUCGAAUUUUCAGCGGAUGCCUCCAAA, the “self-cleavage kobs at 2500 uM GlcN6P” value was determined as 0.000108 ± 3.6e-05 s⁻¹.

Regarding AUAAAAGCGCCAGAACUACAGAAAUGUAGUUGACCACGAGGAGGUUUAUCGAAAUUUCGGCGGAUUCCUCCAAA, the “self-cleavage kobs at 2500 uM GlcN6P” value is under 1e-05 s⁻¹.

AUAAAAGCGCGAGAACUACAGAAAUGUAGUUGACGAGGAGGAGGUUUAUUGAAUUUUCGGUGGAUGCCUGCAAA: the “self-cleavage kobs at 2500 uM GlcN6P” value was determined as 0.000127 ± 3.7e-05 s⁻¹.

For AUAAAAGCGCCAGAACUACAGAAAUGUAGUUGAUGAGGACGAAGUUUAUCGAAUUUUCGGCGGAUGCCUCCAAA, the “self-cleavage kobs at 2500 uM GlcN6P” value is under 1e-05 s⁻¹.

In the case of AUAAAAGCGCCAGAACUACAGAAAUGUAGUUGACGAAGACGGGGUUUAUCGAAUUUUCGGCGGAUGCCUCCAAA, the “self-cleavage kobs at 2500 uM GlcN6P” value was determined as 0.000126 ± 4.4e-05 s⁻¹.

As to AUAAAAGCGCCAGUACUACAGAAAUGUAGUUGACGAGGAGGAGGUUUAUCGCGUCUGCGGCGGAUGCCUCCAAA, the “self-cleavage kobs at 2500 uM GlcN6P” value was under 1e-05 s⁻¹.

Take AUAAAAGCGCUAGAACUACAGAAAUGUAGUUCACGAGGAGGAGGUUUAUGGAAUUUUCGGGGGAUGCCUCCAAA: the “self-cleavage kobs at 2500 uM GlcN6P” value was 0.000267 ± 7.4e-05 s⁻¹.

For the variant AUAAAAGAGCCAGAACUACAGAAAUGUAGUUGACGAGGAGGAGGUUUAUGGAAUUUUCGGCGGAUGCCGCCAAA, the “self-cleavage kobs at 2500 uM GlcN6P” value was 0.000345 ± 7.5e-05 s⁻¹.

Regarding AUAAAAUCGCCAGAACUACAGAAAUGUAGUUGACGAGGAGGAGGAUUAUCGAAUUUUAGGCGGAUGCCUCCAAA, the “self-cleavage kobs at 2500 uM GlcN6P” value was under 1e-05 s⁻¹.

As for AUAAAGGCGCCAGAACUACAGAAAUGUAGCUGACGAGGAGGAGUUUUAUCGCAUUUUCGGCGUAUGCCUCCAAA, the “self-cleavage kobs at 2500 uM GlcN6P” value was under 1e-05 s⁻¹.

Turning to AUAAAAGCGACAGAACUACAGAAAUGUAGUUGACGAGGAGGAGGUUUCUCGAAUUUUCGGCGGUUGCCUCCAAA, the “self-cleavage kobs at 2500 uM GlcN6P” value is under 1e-05 s⁻¹.

In the case of AUAAAAGUGCCAGAACUACAGAAAUGUAGUUGACGAGAAGGAGGUUUAUCGAAUUUUCGGCGGAUGCCUACAAA, the “self-cleavage kobs at 2500 uM GlcN6P” value is under 1e-05 s⁻¹.

Take AUAAAUGCGCCUGAACUACAGAAAUGUAGUUGACGAGGAGGAGGUUUAUCGAAUAUUCGGCGGAUGCCUCCAAA: the “self-cleavage kobs at 2500 uM GlcN6P” value stood at 0.000377 ± 9.2e-05 s⁻¹.

Take AUAAAAGCGCCAGAACUACAGAAAUGUAGUUGACGAGGAGGAGGUUUAUCGAUUUAUCGGCGGAUGCUUCCAAA: the “self-cleavage kobs at 2500 uM GlcN6P” value was 0.000647 ± 0.00019 s⁻¹.

As for AUAAAAGCGCCAGACCUACAGAAAUGUAGUUGACGAGGAGGAGGUUUAUCGAAUAUUCGCCGGAUGCCUCCAAA, the “self-cleavage kobs at 2500 uM GlcN6P” value is under 1e-05 s⁻¹.

In the next data set the parent is B1. Description: self-cleavage kobs at 10000 uM GlcN6P; higher = faster cleavage; RNA array. The following applies: with glucosamine-6-phosphate. The procedure, abridged: as §1
AUAAAAGCGCCAGUACUACAGAAAUGUAGUUGACGAGGACGAGGUCUAUCGAGUUUUCGGCGGAUGCCUCGAAA: the “self-cleavage kobs at 10000 uM GlcN6P” value stood at 0.00202 ± 0.00042 s⁻¹.

As to AUAAAAGCGCGAGAACUACAGAAAUGUAGUUGACGAGGAGGAGGUUUAUUGAAUUUUCGGUGGAUGCCUGCAAA, the “self-cleavage kobs at 10000 uM GlcN6P” value came to 3.43e-05 ± 1.4e-05 s⁻¹.
